The stoichiometry N is the number of molecules, sites or subunits per partner or assembly.

For one substance, stoichiometry N results are on record in PMC4048032.

The assay addresses VopL C-terminal Domain (VCD), residues 247–484 (Vibrio parahaemolyticus) (UniProt Q87GE5). Put plainly: crystal structure.

With “VopL C-terminal Domain (VCD), residues 247–484 (from UniProt Q87GE5 247-484) (domain or fragment)”, the stoichiometry N was 2.
